# Legend:
# [1] = target: ASK1 (Homo sapiens, UniProt Q99683); assay: biochemical; conditions: read-out: Percentages of residual activities of the kinase reaction
# Description: (§1) Selectivity testing (Table 2) was performed on the commercial basis at the Division of Signal Transduction Therapy, University of Dundee. ATP concentrations that were used in testing were close to the Km value of the kinase.
# [2] = target: Aurora B (Homo sapiens, UniProt Q96GD4); assay: biochemical; conditions: read-out: Percentages of residual activities of the kinase reaction
# Chain of Aurora B (Q96GD4 whole entry): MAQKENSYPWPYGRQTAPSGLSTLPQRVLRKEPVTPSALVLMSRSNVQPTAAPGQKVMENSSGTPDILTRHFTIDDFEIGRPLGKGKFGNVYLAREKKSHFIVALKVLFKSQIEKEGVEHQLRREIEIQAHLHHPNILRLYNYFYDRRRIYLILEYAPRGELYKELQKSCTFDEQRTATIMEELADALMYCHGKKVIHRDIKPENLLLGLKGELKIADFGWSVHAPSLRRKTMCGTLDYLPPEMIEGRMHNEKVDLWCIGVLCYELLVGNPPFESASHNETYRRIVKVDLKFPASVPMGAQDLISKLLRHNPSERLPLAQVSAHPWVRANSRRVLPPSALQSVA
# Description: as §1
# [3] = target: BTK (Homo sapiens, UniProt Q06187); assay: biochemical; conditions: read-out: Percentages of residual activities of the kinase reaction
# Description: as §1
# [4] = target: CAMK1 (Homo sapiens, UniProt Q14012); assay: biochemical; conditions: read-out: Percentages of residual activities of the kinase reaction
# Description: as §1
# [5] = target: CDK2-Cyclin A (Homo sapiens, UniProt P24941); assay: biochemical; conditions: read-out: Percentages of residual activities of the kinase reaction
# Description: as §1
# [6] = target: DAPK1 (Homo sapiens, UniProt P53355); assay: biochemical; conditions: read-out: Percentages of residual activities of the kinase reaction
# Chain of DAPK1 (P53355 whole entry, species assumed): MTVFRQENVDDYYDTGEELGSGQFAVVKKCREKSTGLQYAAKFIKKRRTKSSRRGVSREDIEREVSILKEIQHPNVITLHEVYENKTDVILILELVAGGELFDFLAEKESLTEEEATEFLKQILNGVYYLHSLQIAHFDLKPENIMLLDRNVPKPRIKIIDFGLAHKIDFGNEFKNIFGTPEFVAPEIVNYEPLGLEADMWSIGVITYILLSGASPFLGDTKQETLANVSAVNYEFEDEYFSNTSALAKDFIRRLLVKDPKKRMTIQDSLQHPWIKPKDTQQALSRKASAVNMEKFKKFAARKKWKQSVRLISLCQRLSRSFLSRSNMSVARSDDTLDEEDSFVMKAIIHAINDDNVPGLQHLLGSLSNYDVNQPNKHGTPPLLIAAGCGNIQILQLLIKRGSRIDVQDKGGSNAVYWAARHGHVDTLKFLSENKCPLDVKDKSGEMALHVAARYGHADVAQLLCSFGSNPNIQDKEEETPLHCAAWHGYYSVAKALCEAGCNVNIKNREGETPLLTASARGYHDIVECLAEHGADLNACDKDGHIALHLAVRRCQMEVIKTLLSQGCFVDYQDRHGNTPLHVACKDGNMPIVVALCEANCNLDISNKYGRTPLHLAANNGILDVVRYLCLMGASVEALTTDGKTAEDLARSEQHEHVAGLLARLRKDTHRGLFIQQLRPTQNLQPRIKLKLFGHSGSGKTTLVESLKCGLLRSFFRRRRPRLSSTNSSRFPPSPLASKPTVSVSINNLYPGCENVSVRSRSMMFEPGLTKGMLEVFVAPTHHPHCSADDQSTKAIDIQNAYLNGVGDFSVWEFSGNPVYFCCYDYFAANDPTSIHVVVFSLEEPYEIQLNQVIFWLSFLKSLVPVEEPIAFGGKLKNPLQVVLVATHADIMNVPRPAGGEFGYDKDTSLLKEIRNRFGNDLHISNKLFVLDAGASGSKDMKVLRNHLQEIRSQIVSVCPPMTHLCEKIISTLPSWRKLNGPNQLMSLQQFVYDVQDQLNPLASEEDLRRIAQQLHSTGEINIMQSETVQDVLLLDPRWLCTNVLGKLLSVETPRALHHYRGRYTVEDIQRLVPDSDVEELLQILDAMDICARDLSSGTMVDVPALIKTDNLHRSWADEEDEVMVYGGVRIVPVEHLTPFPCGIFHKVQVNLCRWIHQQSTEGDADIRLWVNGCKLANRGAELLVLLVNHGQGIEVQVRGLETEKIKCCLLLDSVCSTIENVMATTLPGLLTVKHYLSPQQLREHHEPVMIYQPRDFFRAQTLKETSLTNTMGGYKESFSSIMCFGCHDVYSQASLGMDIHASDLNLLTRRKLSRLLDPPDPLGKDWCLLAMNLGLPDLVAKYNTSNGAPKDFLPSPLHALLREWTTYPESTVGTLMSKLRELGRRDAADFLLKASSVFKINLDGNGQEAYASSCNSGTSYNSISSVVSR
# Description: as §1
# [7] = target: DYRK2 (Homo sapiens, UniProt Q92630); assay: biochemical; conditions: read-out: Percentages of residual activities of the kinase reaction
# Description: as §1
# [8] = target: EPH-B1 (Homo sapiens, UniProt P54762); assay: biochemical; conditions: read-out: Percentages of residual activities of the kinase reaction
# Description: as §1
# [9] = target: EPH-B3 (Homo sapiens, UniProt P54753); assay: biochemical; conditions: read-out: Percentages of residual activities of the kinase reaction
# Description: as §1
# [10] = target: ERK8 (Homo sapiens, UniProt Q8TD08); assay: biochemical; conditions: read-out: Percentages of residual activities of the kinase reaction
# Description: as §1
# [11] = target: HER4 (Homo sapiens, UniProt Q15303); assay: biochemical; conditions: read-out: Percentages of residual activities of the kinase reaction
# Description: as §1
# [12] = target: HIPK3 (Homo sapiens, UniProt Q9H422); assay: biochemical; conditions: read-out: Percentages of residual activities of the kinase reaction
# Description: as §1
# [13] = target: IRR (Homo sapiens, UniProt P14616); assay: biochemical; conditions: read-out: Percentages of residual activities of the kinase reaction
# Chain of IRR (P14616 27-1297, species assumed): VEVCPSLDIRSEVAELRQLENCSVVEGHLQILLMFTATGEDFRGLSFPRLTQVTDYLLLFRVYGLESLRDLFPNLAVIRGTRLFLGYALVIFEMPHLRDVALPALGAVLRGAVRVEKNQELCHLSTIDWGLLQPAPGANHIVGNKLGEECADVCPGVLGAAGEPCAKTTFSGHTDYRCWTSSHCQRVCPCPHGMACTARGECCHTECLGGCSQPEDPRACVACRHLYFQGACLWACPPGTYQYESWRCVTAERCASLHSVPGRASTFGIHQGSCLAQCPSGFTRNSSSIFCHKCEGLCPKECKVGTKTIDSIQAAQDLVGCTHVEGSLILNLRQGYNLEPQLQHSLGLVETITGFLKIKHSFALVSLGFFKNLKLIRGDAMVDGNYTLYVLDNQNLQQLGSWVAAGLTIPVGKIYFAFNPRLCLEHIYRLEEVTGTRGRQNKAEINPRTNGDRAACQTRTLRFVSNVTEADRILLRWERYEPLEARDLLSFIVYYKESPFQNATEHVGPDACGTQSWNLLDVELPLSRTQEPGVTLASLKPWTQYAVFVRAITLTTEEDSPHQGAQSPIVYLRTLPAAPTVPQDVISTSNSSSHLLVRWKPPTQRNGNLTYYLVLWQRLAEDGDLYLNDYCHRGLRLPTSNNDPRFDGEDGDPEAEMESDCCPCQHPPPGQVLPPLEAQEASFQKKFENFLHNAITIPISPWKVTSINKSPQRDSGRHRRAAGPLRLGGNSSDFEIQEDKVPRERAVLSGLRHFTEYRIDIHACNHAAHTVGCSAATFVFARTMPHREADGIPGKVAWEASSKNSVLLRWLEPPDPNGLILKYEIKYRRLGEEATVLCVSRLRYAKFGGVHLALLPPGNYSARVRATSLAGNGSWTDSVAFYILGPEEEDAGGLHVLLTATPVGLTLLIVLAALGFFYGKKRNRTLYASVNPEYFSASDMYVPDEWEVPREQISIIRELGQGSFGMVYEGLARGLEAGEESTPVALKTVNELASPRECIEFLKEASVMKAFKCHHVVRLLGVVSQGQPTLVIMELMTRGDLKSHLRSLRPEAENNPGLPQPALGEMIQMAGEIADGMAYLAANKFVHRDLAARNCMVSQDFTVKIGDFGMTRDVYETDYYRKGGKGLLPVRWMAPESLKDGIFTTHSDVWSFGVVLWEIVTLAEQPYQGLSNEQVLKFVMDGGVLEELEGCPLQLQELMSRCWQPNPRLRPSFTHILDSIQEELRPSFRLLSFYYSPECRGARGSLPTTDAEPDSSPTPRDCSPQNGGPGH
# Description: as §1
# [14] = target: JNK3 (Homo sapiens, UniProt P53779); assay: biochemical; conditions: read-out: Percentages of residual activities of the kinase reaction
# Description: as §1
# [15] = target: Lck (Homo sapiens, UniProt P06239); assay: biochemical; conditions: read-out: Percentages of residual activities of the kinase reaction
# Chain of Lck (P06239 whole entry, species assumed): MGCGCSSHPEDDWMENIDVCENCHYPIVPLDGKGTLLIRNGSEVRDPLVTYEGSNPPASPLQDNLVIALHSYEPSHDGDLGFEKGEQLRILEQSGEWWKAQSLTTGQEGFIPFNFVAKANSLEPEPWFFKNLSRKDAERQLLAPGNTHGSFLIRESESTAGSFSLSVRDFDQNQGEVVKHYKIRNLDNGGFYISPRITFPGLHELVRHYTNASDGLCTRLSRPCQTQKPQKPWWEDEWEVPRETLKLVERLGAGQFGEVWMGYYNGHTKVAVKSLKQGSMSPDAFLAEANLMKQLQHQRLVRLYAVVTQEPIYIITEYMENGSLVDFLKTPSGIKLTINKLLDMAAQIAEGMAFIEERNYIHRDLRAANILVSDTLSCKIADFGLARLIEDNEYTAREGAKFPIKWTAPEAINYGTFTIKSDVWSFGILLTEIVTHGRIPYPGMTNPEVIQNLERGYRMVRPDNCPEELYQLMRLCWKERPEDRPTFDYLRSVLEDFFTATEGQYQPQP
# Description: as §1
# [16] = target: MARK2 (Homo sapiens, UniProt Q7KZI7); assay: biochemical; conditions: read-out: Percentages of residual activities of the kinase reaction
# Description: as §1
# [17] = target: MELK (Homo sapiens, UniProt Q14680); assay: biochemical; conditions: read-out: Percentages of residual activities of the kinase reaction
# Chain of MELK (Q14680 whole entry, species assumed): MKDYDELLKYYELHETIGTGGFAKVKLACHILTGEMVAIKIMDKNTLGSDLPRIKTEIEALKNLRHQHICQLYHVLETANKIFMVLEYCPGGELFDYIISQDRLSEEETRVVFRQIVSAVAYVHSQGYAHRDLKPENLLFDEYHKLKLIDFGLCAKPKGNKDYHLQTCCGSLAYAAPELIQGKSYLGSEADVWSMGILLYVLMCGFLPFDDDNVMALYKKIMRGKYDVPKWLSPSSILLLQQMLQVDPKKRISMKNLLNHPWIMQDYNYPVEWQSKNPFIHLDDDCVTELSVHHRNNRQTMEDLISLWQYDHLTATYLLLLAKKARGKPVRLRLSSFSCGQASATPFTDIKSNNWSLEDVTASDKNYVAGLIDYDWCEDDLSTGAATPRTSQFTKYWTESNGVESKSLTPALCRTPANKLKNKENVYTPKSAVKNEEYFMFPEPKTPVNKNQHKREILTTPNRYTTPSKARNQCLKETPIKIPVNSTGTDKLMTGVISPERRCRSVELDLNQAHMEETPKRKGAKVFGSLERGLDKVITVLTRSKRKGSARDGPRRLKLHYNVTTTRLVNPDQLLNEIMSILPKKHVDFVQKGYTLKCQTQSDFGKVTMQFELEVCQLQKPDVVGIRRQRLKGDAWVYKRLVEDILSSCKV
# Description: as §1
# [18] = target: MINK1 (Homo sapiens, UniProt Q8N4C8); assay: biochemical; conditions: read-out: Percentages of residual activities of the kinase reaction
# Description: as §1
# [19] = target: MNK1 (Homo sapiens, UniProt Q9BUB5); assay: biochemical; conditions: read-out: Percentages of residual activities of the kinase reaction
# Chain of MNK1 (Q9BUB5 whole entry, species assumed): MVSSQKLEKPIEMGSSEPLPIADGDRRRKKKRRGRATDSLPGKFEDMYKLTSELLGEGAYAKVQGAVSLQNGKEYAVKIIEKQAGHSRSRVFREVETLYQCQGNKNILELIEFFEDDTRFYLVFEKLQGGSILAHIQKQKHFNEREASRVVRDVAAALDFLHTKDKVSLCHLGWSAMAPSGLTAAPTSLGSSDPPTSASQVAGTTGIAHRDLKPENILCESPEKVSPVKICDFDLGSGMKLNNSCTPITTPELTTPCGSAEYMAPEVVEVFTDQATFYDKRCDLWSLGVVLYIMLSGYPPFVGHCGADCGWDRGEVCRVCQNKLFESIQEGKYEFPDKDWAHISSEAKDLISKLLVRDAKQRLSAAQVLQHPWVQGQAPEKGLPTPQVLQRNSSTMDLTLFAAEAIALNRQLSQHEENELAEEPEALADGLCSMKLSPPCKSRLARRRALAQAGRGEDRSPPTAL
# Description: as §1
# [20] = target: MPSK1 (Homo sapiens, UniProt O75716); assay: biochemical; conditions: read-out: Percentages of residual activities of the kinase reaction
# Chain of MPSK1 (O75716 whole entry, species assumed): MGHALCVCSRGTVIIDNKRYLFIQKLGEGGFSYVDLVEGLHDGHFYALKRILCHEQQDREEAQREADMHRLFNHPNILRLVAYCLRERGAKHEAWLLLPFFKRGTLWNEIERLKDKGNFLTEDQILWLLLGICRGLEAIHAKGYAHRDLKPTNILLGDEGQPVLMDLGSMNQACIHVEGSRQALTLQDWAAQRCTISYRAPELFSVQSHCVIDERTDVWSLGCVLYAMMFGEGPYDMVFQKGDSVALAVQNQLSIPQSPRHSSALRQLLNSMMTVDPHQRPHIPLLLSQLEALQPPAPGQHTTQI
# Description: as §1
# [21] = target: MSK1 (Homo sapiens, UniProt O75582); assay: biochemical; conditions: read-out: Percentages of residual activities of the kinase reaction
# Description: as §1
# [22] = target: NEK2a (Homo sapiens, UniProt P51955); assay: biochemical; conditions: read-out: Percentages of residual activities of the kinase reaction
# Description: as §1
# [23] = target: PAK2 (Homo sapiens, UniProt Q13177); assay: biochemical; conditions: read-out: Percentages of residual activities of the kinase reaction
# Description: as §1
# [24] = target: PDK1 (Homo sapiens, UniProt O15530); assay: biochemical; conditions: read-out: Percentages of residual activities of the kinase reaction
# Description: as §1
# [25] = target: PIM3 (Homo sapiens, UniProt Q86V86); assay: biochemical; conditions: read-out: Percentages of residual activities of the kinase reaction
# Description: as §1
# [26] = target: PKA (Homo sapiens, UniProt P17612); assay: biochemical; conditions: read-out: Percentages of residual activities of the kinase reaction
# Description: as §1
# [27] = target: PKCγ (Homo sapiens, UniProt P05129); assay: biochemical; conditions: read-out: Percentages of residual activities of the kinase reaction
# Description: as §1
# [28] = target: PLK1 (Homo sapiens, UniProt P53350); assay: biochemical; conditions: read-out: Percentages of residual activities of the kinase reaction
# Description: as §1
# [29] = target: ROCK 2 (Homo sapiens, UniProt O75116); assay: biochemical; conditions: read-out: Percentages of residual activities of the kinase reaction
# Description: as §1
# [30] = target: SRPK1 (Homo sapiens, UniProt Q96SB4); assay: biochemical; conditions: read-out: Percentages of residual activities of the kinase reaction
# Description: as §1
# [31] = target: SYK (Homo sapiens, UniProt P43405); assay: biochemical; conditions: read-out: Percentages of residual activities of the kinase reaction
# Description: as §1
# [32] = target: ZAP70 (Homo sapiens, UniProt P43403); assay: biochemical; conditions: read-out: Percentages of residual activities of the kinase reaction
# Description: as §1
# [33] = target: p38b MAPK (Homo sapiens, UniProt Q15759); assay: biochemical; conditions: read-out: Percentages of residual activities of the kinase reaction
# Description: as §1
# [34] = target: p38d MAPK (Homo sapiens, UniProt O15264); assay: biochemical; conditions: read-out: Percentages of residual activities of the kinase reaction
# Description: as §1
# [35] = system: AMPK; assay: PK selectivity profiling, residual kinase activity; assay type: biochemical; conditions: 1 μM ARC-669, ATP close to Km
# [36] = system: CK1; assay: PK selectivity profiling, residual kinase activity; assay type: biochemical; conditions: 1 μM ARC-669, ATP close to Km
# [37] = system: CK2; assay: PK selectivity profiling, residual kinase activity; assay type: biochemical; conditions: 1 μM ARC-669, ATP close to Km
# [38] = target: T1, SmMLCK (Homo sapiens, UniProt Q15746); assay: PK selectivity profiling, residual kinase activity; assay type: biochemical; conditions: 1 μM ARC-669, ATP close to Km, read-out: Percentages of residual activities of the kinase reaction
# T1 construct: Division of Signal Transduction Therapy, University of Dundee (contract testing)
# [39] = system: PHK; assay: PK selectivity profiling, residual kinase activity; assay type: biochemical; conditions: 1 μM ARC-669, ATP close to Km
# [40] = target: catalytic subunit of cAMP-dependent protein kinase (PKAc) (Homo sapiens, UniProt P17612); assay: Binding affinity to PKAc; conditions: towards PKAc
compound,measurement,setting,value
CN(C)c1ccc2c(c1)Oc1cc(N(C)C)ccc1C21OC(=O)c2cc(C(=O)NCCCC[C@@H](NC(=O)[C@@H](CCCNC(=N)N)NC(=O)[C@@H](CCCNC(=N)N)NC(=O)[C@@H](CCCNC(=N)N)NC(=O)[C@@H](CCCNC(=N)N)NC(=O)[C@@H](CCCNC(=N)N)NC(=O)[C@@H](CCCNC(=N)N)NC(=O)CCCCCNC(=O)[C@@H](CCCNC(=N)N)NC(=O)CCCCCNC(=O)c3ccc(-c4ccnc(N)n4)s3)C(N)=O)ccc21 [ARC-669],remaining activity at 1 µM,[1],74%
same,remaining activity at 1 µM,[2],81%
same,remaining activity at 1 µM,[3],36%
same,remaining activity at 1 µM,[4],3%
same,remaining activity at 1 µM,[5],78%
same,remaining activity at 1 µM,[6],20%
same,remaining activity at 1 µM,[7],65%
same,remaining activity at 1 µM,[8],90%
same,remaining activity at 1 µM,[9],75%
same,remaining activity at 1 µM,[10],23%
same,remaining activity at 1 µM,[11],82%
same,remaining activity at 1 µM,[12],97%
same,remaining activity at 1 µM,[13],32%
same,remaining activity at 1 µM,[14],77%
same,remaining activity at 1 µM,[15],11%
same,remaining activity at 1 µM,[16],77%
same,remaining activity at 1 µM,[17],31%
same,remaining activity at 1 µM,[18],51%
same,remaining activity at 1 µM,[19],74%
same,remaining activity at 1 µM,[20],97%
same,remaining activity at 1 µM,[21],3%
same,remaining activity at 1 µM,[22],55%
same,remaining activity at 1 µM,[23],43%
same,remaining activity at 1 µM,[24],88%
same,remaining activity at 1 µM,[25],7%
same,remaining activity at 1 µM,[26],1%
same,remaining activity at 1 µM,[27],13%
same,remaining activity at 1 µM,[28],101%
same,remaining activity at 1 µM,[29],10%
same,remaining activity at 1 µM,[30],66%
same,remaining activity at 1 µM,[31],73%
same,remaining activity at 1 µM,[32],82%
same,remaining activity at 1 µM,[33],71%
same,remaining activity at 1 µM,[34],104%
same,Percentages of residual activities of the kinase reaction,[35],36%
same,Percentages of residual activities of the kinase reaction,[36],72%
same,Percentages of residual activities of the kinase reaction,[37],7%
same,remaining activity at 1 µM,[38],46%
same,Percentages of residual activities of the kinase reaction,[39],32%
same,Kd,[40],100 pM
